Data: IntAct's records for PubMed 21720390

B1: NAD-dependent protein deacetylase sirtuin-3, mitochondrial (Homo sapiens), Q9NTG7 (parent)
chain: MAFWGWRAAAALRLWGRVVERVEAGGGVGPFQACGCRLVLGGRDDVSAGLRGSHGARGEPLDPARPLQRPPRPEVPRAFRRQPRAAAPSFFFSSIKGGRRSISFSVGASSVVGSGGSSDKGKLSLQDVAELIRARACQRVVVMVGAGISTPSGIPDFRSPGSGLYSNLQQYDLPYPEAIFELPFFFHNPKPFFTLAKELYPGNYKPNVTHYFLRLLHDKGLLLRLYTQNIDGLERVSGIPASKLVEAHGTFASATCTVCQRPFPGEDIRADVMADRVPRCPVCTGVVKPDIVFFGEPLPQRFLLHVVDFPMADLLLILGTSLEVEPFASLTEAVRSSVPRLLINRDLVGPLAWHPRSRDVAQLGDVVHGVESLVELLGWTEEMRDLVQRETGKLDGPDK

Variants of: B1
Details: with aldh2_human ALDH2, P05091
aldh2_human ALDH2, P05091, sequence (P05091 whole entry): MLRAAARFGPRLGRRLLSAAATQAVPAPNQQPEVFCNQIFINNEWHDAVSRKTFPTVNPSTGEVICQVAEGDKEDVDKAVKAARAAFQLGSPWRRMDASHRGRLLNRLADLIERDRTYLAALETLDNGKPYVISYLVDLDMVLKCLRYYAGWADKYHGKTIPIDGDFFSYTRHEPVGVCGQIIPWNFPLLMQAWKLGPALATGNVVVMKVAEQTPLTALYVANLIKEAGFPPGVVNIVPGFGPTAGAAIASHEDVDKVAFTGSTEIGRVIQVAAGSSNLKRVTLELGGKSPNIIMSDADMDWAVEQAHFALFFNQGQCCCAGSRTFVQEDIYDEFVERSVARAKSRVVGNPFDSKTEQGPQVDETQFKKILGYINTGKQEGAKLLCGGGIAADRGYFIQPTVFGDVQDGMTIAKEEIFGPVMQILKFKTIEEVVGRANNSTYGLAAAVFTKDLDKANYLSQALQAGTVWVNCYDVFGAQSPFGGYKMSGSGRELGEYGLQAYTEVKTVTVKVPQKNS
For H248Y, the “effect of a mutation on the interaction” value was “decreasing interaction”.
